Laboratory results published in patent US20020146750A1 (published 2002).
Changes are numbered by the printed parent chain.

B1: 3A7 (Fab, V domains shown)
VH: QVQLVQSGGGLVQPGGSLRLSCAASGFTFRSNAMGWVRQAPGKGLEWVSGISGSGGSTYYADSVKGRFTISRDNSKNTLYLQMNSLRAEDTAVYYCAKHTGGGVWDPIDKWGQGTLVTVSS
VL: EIVLTQSPLSLPVTPGEPASISCRSSQSLLHSNGYTYLDWYLQKPGQSPQLLIYSGSHRASGVPDRFSGSVSGTDFTLRISRVEAEDVGVYYCMQGLQSPFTFGPGTKVDIKR
notes: PH1 Fab variant
B2: 3B8 (Fab, V domains shown)
VH: B1 VH with G102A, K110Y
VL: B1 VL
notes: PH1 Fab variant
B3: 3B9 (Fab, V domains shown)
VH: B1 VH with I108L, D109G, K110Y
VL: B1 VL
notes: PH1 Fab variant
B4: 3D1 (Fab, V domains shown)
VH: B1 VH with K98Q, D109G, K110Y
VL: B1 VL
notes: PH1 Fab variant
B5: 3D7 (Fab, V domains shown)
VH: B1 VH with G102A, K110Y
VL: B1 VL
notes: PH1 Fab variant
B6: 3E2 (Fab, V domains shown)
VH: B1 VH with D109A, K110Y
VL: B1 VL
notes: PH1 Fab variant
B7: 3F3 (Fab, V domains shown)
VH: B1 VH with G102R, K110Y
VL: B1 VL
notes: PH1 Fab variant
B8: 3F4 (Fab, V domains shown)
VH: B1 VH with D109A, K110N
VL: B1 VL
notes: PH1 Fab variant
B9: 3F7 (Fab, V domains shown)
VH: B1 VH with D109Y, K110Y
VL: B1 VL
notes: PH1 Fab variant
B10: 3G1 (Fab, V domains shown)
VH: B1 VH with K110D
VL: B1 VL
notes: PH1 Fab variant
B11: 3H1 (Fab, V domains shown)
VH: B1 VH with I108F, D109A, K110Y
VL: B1 VL
notes: PH1 Fab variant
B12: 3H2 (Fab, V domains shown)
VH: B1 VH with I108M, K110Y
VL: B1 VL
notes: PH1 Fab variant
B13: 5A6 (Fab, V domains shown)
VH: B1 VH with A97V, K110Y
VL: B1 VL
notes: PH1 Fab variant
B14: 6A9 (Fab, V domains shown)
VH: B1 VH with G102S, D109N, K110Y
VL: B1 VL
notes: PH1 Fab variant
B15: 6B3 (Fab, V domains shown)
VH: B1 VH with D109G, K110H
VL: B1 VL
notes: PH1 Fab variant
B16: 6B5 (Fab, V domains shown)
VH: B1 VH with D109A, K110Y
VL: B1 VL
notes: PH1 Fab variant
B17: 6B6 (Fab, V domains shown)
VH: B1 VH with D109G, K110Y
VL: B1 VL
notes: PH1 Fab variant
B18: 6C5 (Fab, V domains shown)
VH: B1 VH with A97V, D109V, K110Y
VL: B1 VL
notes: PH1 Fab variant
B19: 6C8 (Fab, V domains shown)
VH: B1 VH with D109N, K110D
VL: B1 VL
notes: PH1 Fab variant
B20: 6C10 (Fab, V domains shown)
VH: B1 VH with D109H, K110Y
VL: B1 VL
notes: PH1 Fab variant
B21: 6E4 (Fab, V domains shown)
VH: B1 VH with I108V, K110Y
VL: B1 VL
notes: PH1 Fab variant
B22: 6F4 (Fab, V domains shown)
VH: B1 VH with A97S, D109G, K110Y
VL: B1 VL
notes: PH1 Fab variant
B23: 7B5 (Fab, V domains shown)
VH: B1 VH with D109A, K110Y
VL: B1 VL
notes: PH1 Fab variant
B24: 7D1 (Fab, V domains shown)
VH: B1 VH with D109K, K110H
VL: B1 VL
notes: PH1 Fab variant; also called clone 7D1
B25: 7F3 (Fab, V domains shown)
VH: B1 VH with K98I, D109K, K110Y
VL: B1 VL
notes: PH1 Fab variant; also called clone 7F3
B26: 8F5 (Fab, V domains shown)
VH: B1 VH with D109A, K110Y
VL: B1 VL
notes: PH1 Fab variant
B27: 10A9 (Fab, V domains shown)
VH: B1 VH with D109H, K110N
VL: B1 VL
notes: PH1 Fab variant
B28: 10B3 (Fab, V domains shown)
VH: B1 VH with D109G, K110Y
VL: B1 VL
notes: PH1 Fab variant
B29: 10C10 (Fab, V domains shown)
VH: B1 VH with G102V, D109K, K110Y
VL: B1 VL
notes: PH1 Fab variant
B30: 10E1 (Fab, V domains shown)
VH: B1 VH with D109A, K110Y
VL: B1 VL
notes: PH1 Fab variant
B31: 10E10 (Fab, V domains shown)
VH: B1 VH with D106N, K110Y
VL: B1 VL
notes: PH1 Fab variant
B32: 10F3 (Fab, V domains shown)
VH: B1 VH with D109V, K110P
VL: B1 VL
notes: PH1 Fab variant
B33: 10F8 (Fab, V domains shown)
VH: B1 VH with I108M, D109H, K110Y
VL: B1 VL
notes: PH1 Fab variant
B34: 10F9 (Fab, V domains shown)
VH: B1 VH with D106N, D109G, K110H
VL: B1 VL
notes: PH1 Fab variant
B35: 11B9 (Fab, V domains shown)
VH: B1 VH with K98R, D109N, K110Y
VL: B1 VL
notes: PH1 Fab variant
B36: 11C1 (Fab, V domains shown)
VH: B1 VH with G102E, D109K, K110Y
VL: B1 VL
notes: PH1 Fab variant
B37: 11D4 (Fab, V domains shown)
VH: B1 VH with I108M, D109A, K110S
VL: B1 VL
notes: PH1 Fab variant
B38: 11F2 (Fab, V domains shown)
VH: B1 VH with K98I, G102A, D109R, K110Y
VL: B1 VL
notes: PH1 Fab variant
B39: 11F4 (Fab, V domains shown)
VH: B1 VH with D109S, K110S
VL: B1 VL
notes: PH1 Fab variant
B40: 11F7 (Fab, V domains shown)
VH: B1 VH with G102V, I108M, D109N, K110Y
VL: B1 VL
notes: PH1 Fab variant
B41: 11F9 (Fab, V domains shown)
VH: B1 VH with A97T, D109N, K110Y
VL: B1 VL
notes: PH1 Fab variant
B42: 11G9 (Fab, V domains shown)
VH: B1 VH with D109G, K110Y
VL: B1 VL
notes: PH1 Fab variant

The binders below were run against T1, MUC1 60-mer peptide NH2-(…)3-COOH (biotinylated in the ELISAs and selections) (assay: ELISA, soluble Fab, biotinylated MUC1 60-mer; relative signal).
T1 construct: also called biotinylated MUC1 60-mer
T1 sequence (peptide, as listed by the source): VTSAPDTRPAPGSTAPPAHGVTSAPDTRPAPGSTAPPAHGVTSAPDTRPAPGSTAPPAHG
Protocol: Soluble Fabs were produced as described (Roovers et al., Br. J. Cancer, 78: 1407-16 (1998)). ELISAs were performed as described by Henderikx et al. (Cancer Res., 58: 4324-4332 (1998)), except the biotinylated MUC1 60-mer was used. The selected PH1 and the affinity-matured antibodies were evaluated for affinity by surface plasmon resonance (SPR) on a BIAcore 2000 apparatus (BIAcore AB, Uppsala, Sweden). Channels of a biotin chip were coated with a MUC1 15-mer, containing the minimal PH1 epitope, PAP, (Ac-PDTRPAPGSTAPPAL-NH₂, (SEQ ID NO:40) 50 RU or 320 RU) or a 60-mer (NH₂-([…])₃-COOH (i.e., containing three copies of SEQ ID NO:8 (von Mensdorff-Pouilly et al., Tumor Biol., 19: 186-195 (1998), 50 RU) in HBS-EP buffer (Pharmacia). One surface was blocked with biotin (15 RU) and used as a negative control. The antibodies were injected in HBS-EP buffer. To minimize rebinding of the antigen binding fragments, the flow speed was 30 μl/sec. Affinity calculation was performed with the BIA-evaluation software provided by the BIAcore. The affinities of the Fabs were calculated according to a 1:1 stoichiometry at steady state.
B1: binds.
B2: binds.
B3: binds.
B4: binds.
B5: binds.
B6: binds.
B7: binds.
B8: binds.
B9: binds.
B10: binds.
B11: binds.
B12: binds.
B13: binds.
B14: binds.
B15: binds.
B16: binds.
B17: binds.
B18: binds.
B19: binds.
B20: binds.
B21: binds.
B22: binds.
B23: binds.
B24: binds.
B25: binds.
B26: binds.
B27: binds.
B28: binds.
B29: binds.
B30: binds.
B31: binds.
B32: binds.
B33: binds.
B34: binds.
B35: binds.
B36: binds.
B37: binds.
B38: binds.
B39: binds.
B40: binds.
B41: binds.
B42: binds.
